In patent US20260347474 (published 2026) one finds EC50 data, which are given here for four molecules.

Substitutions are numbered along the chain they refer to.

First the molecules themselves.
B1: P-1153 (antibody, V domains shown)
VH: QVQLVQSGVEVKKPGASVKVSCKASGYTFTNYYMYWVRQAPGQGLEWMGGINPSNGGTNYAQKFQGRVTLTTDSSTTTAYMELKSLQFDDTAVYYCARRDYRFDMGFDYWGQGTTVTVSS
VL: EIVLTQSPATLSLSPGERATLSCRASQGVSTSGYSYLAWYQQKPGQAPRLLIYLASYRASGVPARFSGSGSGTDFTLTISSLEPEDFAVYYCQHSRDLPLTFGGGTKVEIKR
B2: P-1150 (antibody, V domains shown)
VH: B1 VH with Y60F
VL: B1 VL
B3: P-1148 (antibody, V domains shown)
VH: B1 VH with Y60F
VL: B1 VL with A38H
B4: P-1151 (antibody, V domains shown)
VH: B1 VH
VL: B1 VL with A38H

The target in this experiment is human PD1-6His (human). As to the kind of experiment: ELISA. A general note: An ELISA detects its analyte on a solid surface through an enzyme-linked reagent.
human PD1-6His (human), sequence (chain, as listed by the source): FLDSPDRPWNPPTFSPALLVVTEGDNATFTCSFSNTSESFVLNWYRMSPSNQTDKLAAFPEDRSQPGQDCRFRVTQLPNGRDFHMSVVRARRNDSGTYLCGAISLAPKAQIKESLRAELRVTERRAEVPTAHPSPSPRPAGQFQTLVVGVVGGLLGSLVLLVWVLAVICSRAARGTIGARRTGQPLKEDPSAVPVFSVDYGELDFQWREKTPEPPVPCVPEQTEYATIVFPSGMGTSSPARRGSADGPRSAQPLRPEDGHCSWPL
On to B1, for which the EC50 was found to be 0.11 nM. That is a sub-nanomolar value.
The same measure for B2: 0.088 nM; for B3: 0.093 nM; for B4: 0.065 nM.

Usually EC50 stands for the concentration giving half of the maximal effect. Low readings indicate an effect from little substance, high ones a need for much substance.
